Biological target: SH3-peptide-tagged TVMV-inducible HCV-based signal transducers
Assay: cell-based or functional assay

B1: SH3-H6-68-AP (protein)
chain: SGGSGAEYVRALFDFNGNDEEDLPFKKGDILRIRDKPEEQWWNAEDSEGKRGMIPVPYVEKYRPASASVSALIGGRGGSGGSGGSGGSGGSGGSSKALLKGVRDFNPISACVCLLENSSDGHSERLFGIGFGPYIIANQHLFRRNNGELTIKTMHGEFKVKNSTQLQMKPVEGRDIIVIKMAKDFPPFPQKLKFRQPTIKDRVCMVSTNFQQKSVSSLVSESSHIVHKEDTSFWQHWITTKDGQCGSPLVSIIDGNILGIHSLTHTTNGSNYFVEFPEKFVATYLDAADGWCKNWKFNADKISWGSFILWEDAPEDFMSGLVPRGVGREYVRFAPGSTHHHHHH
- induction ratio: 20 fold

Reference: patent US9791436
